Assay results published in the supplement of paper PMC10567573.

B1: TFE3 (parent)
chain: FPSDHLGDLGDPFHLGLEDILMEE
B2: EIF5 (parent)
chain: KQTIGNSCKACGYRGMLDTHHKLC

Variants of: B1
Experiment: protein stability index of a GFP-peptide fusion (GPS, HEK-293T) (PSI 1-6); higher = more stable
Conditions: c terminus: a fixed tail appended
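Also: lentivirally expressed fusions sorted by FACS into six bins by GFP to DsRed ratio, PSI derived from sequencing read proportions per bin multiplied by bin number.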

First: FHSDHLGDLGDPFHLGLEDILMEE [P2H]
Second: FFSDHLGDLGDPFHLGLEDILMEE [P2F]
The protein stability index of the first is lower: 1.84 for the first, 2.83 for the second.

First: FKSDHLGDLGDPFHLGLEDILMEE [P2K]
Second: FESDHLGDLGDPFHLGLEDILMEE [P2E]
The protein stability index of the first is lower: 3.97 for the first, 4.51 for the second.

Compared with FASDHLGDLGDPFHLGLEDILMEE [P2A], FGSDHLGDLGDPFHLGLEDILMEE [P2G] is higher in protein stability index: 2.62 for the first, 3.62 for the second.

Going from FDSDHLGDLGDPFHLGLEDILMEE [P2D] to FCSDHLGDLGDPFHLGLEDILMEE [P2C], the protein stability index falls from 3.95 to 2.57.

First: FISDHLGDLGDPFHLGLEDILMEE [P2I]
Second: TPSDHLGDLGDPFHLGLEDILMEE [F1T]
The protein stability index of the first is lower: 2.12 for the first, 4.74 for the second.

Compared with PPSDHLGDLGDPFHLGLEDILMEE [F1P], SPSDHLGDLGDPFHLGLEDILMEE [F1S] is lower in protein stability index: 5.13 for the first, 5.1 for the second.

Compared with RPSDHLGDLGDPFHLGLEDILMEE [F1R], LPSDHLGDLGDPFHLGLEDILMEE [F1L] is lower in protein stability index: 4.64 for the first, 4.55 for the second.

First: QPSDHLGDLGDPFHLGLEDILMEE [F1Q]
Second: DPSDHLGDLGDPFHLGLEDILMEE [F1D]
The protein stability index of the first is lower: 4.57 for the first, 4.84 for the second.

Compared with MPSDHLGDLGDPFHLGLEDILMEE [F1M], EPSDHLGDLGDPFHLGLEDILMEE [F1E] is higher in protein stability index: 4.82 for the first, 4.96 for the second.

First: WPSDHLGDLGDPFHLGLEDILMEE [F1W]
Second: CPSDHLGDLGDPFHLGLEDILMEE [F1C]
The protein stability index of the first is lower: 4.36 for the first, 5.03 for the second.

Going from NPSDHLGDLGDPFHLGLEDILMEE [F1N] to VPSDHLGDLGDPFHLGLEDILMEE [F1V], the protein stability index falls from 4.91 to 4.88.

Going from KPSDHLGDLGDPFHLGLEDILMEE [F1K] to HPSDHLGDLGDPFHLGLEDILMEE [F1H], the protein stability index rises from 4.41 to 4.7.

First: GPSDHLGDLGDPFHLGLEDILMEE [F1G]
Second: IPSDHLGDLGDPFHLGLEDILMEE [F1I]
The protein stability index of the first is higher: 5.12 for the first, 4.61 for the second.

Going from APSDHLGDLGDPFHLGLEDILMEE [F1A] to YPSDHLGDLGDPFHLGLEDILMEE [F1Y], the protein stability index falls from 5.42 to 3.3.

Variants of: B2
Experiment: as above
Conditions: c terminus: a fixed tail appended

Compared with KQTITNSCKACGYRGMLDTHHKLC [G5T], KQTIFNSCKACGYRGMLDTHHKLC [G5F] is lower in protein stability index: 2.99 for the first, 2.64 for the second.

Compared with KQTIANSCKACGYRGMLDTHHKLC [G5A], KQTIQNSCKACGYRGMLDTHHKLC [G5Q] is higher in protein stability index: 3.23 for the first, 3.3 for the second.

First: KQTIMNSCKACGYRGMLDTHHKLC [G5M]
Second: KQTICNSCKACGYRGMLDTHHKLC [G5C]
The protein stability index of the first is higher: 4.13 for the first, 3 for the second.

Going from KQTIGNSCKACGTRGMLDTHHKLC [Y13T] to KQTIGNSCKACGMRGMLDTHHKLC [Y13M], the protein stability index rises from 3.19 to 3.32.

Going from KQTIGNSCKACGSRGMLDTHHKLC [Y13S] to KQTIGNSCKACGPRGMLDTHHKLC [Y13P], the protein stability index falls from 3.37 to 2.

Going from KQTIGNSCKACGCRGMLDTHHKLC [Y13C] to KQTIGNSCKACGKRGMLDTHHKLC [Y13K], the protein stability index rises from 3.61 to 3.97.

Going from KQTIGNSCKACGGRGMLDTHHKLC [Y13G] to KQTIGNSCKACGNRGMLDTHHKLC [Y13N], the protein stability index rises from 2.75 to 3.46.

First: KQTIGNSCKACGFRGMLDTHHKLC [Y13F]
Second: KQTIGNSCKACGRRGMLDTHHKLC [Y13R]
The protein stability index of the first is lower: 3.21 for the first, 3.24 for the second.

First: KQTIGNSYKACGYRGMLDTHHKLC [C8Y]
Second: KQTIGNSLKACGYRGMLDTHHKLC [C8L]
The protein stability index of the first is lower: 1.44 for the first, 3.05 for the second.

Compared with KQTIGNSHKACGYRGMLDTHHKLC [C8H], KQTIGNSFKACGYRGMLDTHHKLC [C8F] is lower in protein stability index: 1.91 for the first, 1.44 for the second.

Going from KQTIGNSEKACGYRGMLDTHHKLC [C8E] to KQTIGNSIKACGYRGMLDTHHKLC [C8I], the protein stability index falls from 2.68 to 1.74.

Going from KQTIGNSRKACGYRGMLDTHHKLC [C8R] to KQTIGNSAKACGYRGMLDTHHKLC [C8A], the protein stability index rises from 1.69 to 2.06.

Going from KQTIGNSSKACGYRGMLDTHHKLC [C8S] to KQTIGNSPKACGYRGMLDTHHKLC [C8P], the protein stability index falls from 2.19 to 1.88.

Compared with KQTIGCSCKACGYRGMLDTHHKLC [N6C], KQTIGSSCKACGYRGMLDTHHKLC [N6S] is lower in protein stability index: 3.71 for the first, 3.24 for the second.

First: KQTIGMSCKACGYRGMLDTHHKLC [N6M]
Second: KQTIGFSCKACGYRGMLDTHHKLC [N6F]
The protein stability index of the first is lower: 2.83 for the first, 3.34 for the second.

First: KQTIGNSCKACEYRGMLDTHHKLC [G12E]
Second: KQTIGNSCKACQYRGMLDTHHKLC [G12Q]
The protein stability index of the first is higher: 2.93 for the first, 2.54 for the second.

Compared with KQTIGNSCKACVYRGMLDTHHKLC [G12V], KQTIGNSCKACKYRGMLDTHHKLC [G12K] is higher in protein stability index: 1.62 for the first, 3.06 for the second.

Compared with KQTIGNSCKACTYRGMLDTHHKLC [G12T], KQTIGNSCKACGYRGMLDTHHKIC [L23I] is higher in protein stability index: 2.5 for the first, 2.86 for the second.

Going from KQTIGNSCKACGYRGMLDTHHKDC [L23D] to KQTIGNSCKACGYRGMLDTHHKWC [L23W], the protein stability index falls from 4.67 to 3.91.

First: KQTIGNSCKACGYRGMLDTHHKMC [L23M]
Second: KQTIGNSCKACGYRGMLDTHHKAC [L23A]
The protein stability index of the first is lower: 3.42 for the first, 3.89 for the second.

Compared with KQTIGNSCKACGYRGMLDTHHKVC [L23V], KQTIGNSCKACGYRGMLDTHHKEC [L23E] is lower in protein stability index: 4.26 for the first, 4.2 for the second.

Going from KQTIGNSCKACGYRGMLDTHHKGC [L23G] to KQTIGNSCKACGYRGMLDTHLKLC [H21L], the protein stability index falls from 3.93 to 2.77.

Compared with KQTIGNSCKACGYRGMLDTHGKLC [H21G], KQTIGNSCKACGYRGMLDTHSKLC [H21S] is lower in protein stability index: 3.17 for the first, 2.9 for the second.

First: KQTIGNSCKACGYRGMLDTHEKLC [H21E]
Second: KQTIGNSCKACGYRGMLDTHVKLC [H21V]
The protein stability index of the first is lower: 3.21 for the first, 3.29 for the second.

Going from KQTIGNSCKACGYRGMLDTHHILC [K22I] to KQTIGNSCKACGYRGMLDTHHVLC [K22V], the protein stability index rises from 2.37 to 2.77.

Going from KQTIGNSCKACGYRGMLDTHHGLC [K22G] to KQTIGNSCKACGYRGMLDTHHLLC [K22L], the protein stability index rises from 2.52 to 2.65.

Going from KQTIGNSCKACGYRGMLDTHHRLC [K22R] to KQTIGNSCKACGYRGMLDTHHDLC [K22D], the protein stability index rises from 2.34 to 3.72.

Compared with KQTIGNSCKACGYRGMLDTHHCLC [K22C], KQTIGNSCKACGYRGMLDTHHSLC [K22S] is lower in protein stability index: 4.4 for the first, 2.79 for the second.

Going from KQTIGNSCKSCGYRGMLDTHHKLC [A10S] to KQTIGNSCKKCGYRGMLDTHHKLC [A10K], the protein stability index falls from 3.44 to 3.29.

Going from KQTIGNSCKMCGYRGMLDTHHKLC [A10M] to KQTIGNSCKWCGYRGMLDTHHKLC [A10W], the protein stability index falls from 3.12 to 3.01.

Going from KQTIGNSCKCCGYRGMLDTHHKLC [A10C] to KQTIGNSCKVCGYRGMLDTHHKLC [A10V], the protein stability index rises from 3.09 to 3.33.

First: KQTIGNSCKICGYRGMLDTHHKLC [A10I]
Second: KQTIGNSCKFCGYRGMLDTHHKLC [A10F]
The protein stability index of the first is lower: 3.86 for the first, 4.01 for the second.

Going from KQTIGNSCKGCGYRGMLDTHHKLC [A10G] to EQTIGNSCKACGYRGMLDTHHKLC [K1E], the protein stability index rises from 2.71 to 2.95.
